B1: Hairpin Ribozyme (parent)
chain: GUCCUCUUUCACGUGCGCGUGAAAGAGAGAAGUGAACCAGAGAAACACACGUUGUGGUAUAUUACCUGGUA

The source of these data is the RNAGym collection of RNA variant scans (doi:10.7554/elife.80360).

Variants of B1 are the subject of this data set. As to the kind of experiment: self-cleavage, relative activity (ratio to wild type); higher = more cleavage; co-transcriptional.
Regarding A30G G51C, the self-cleavage was found to be 0.199.
As for G29C C37U, the self-cleavage worked out at 0.121.
For A28G C46A, the self-cleavage turned out to be 0.199.
To G29C A39U belongs 0.0768; to A28U G40C, 0.0881; to G29U A61C, 0.14.
To A28U A41U belongs 1.31; to A28U A41G, 0.35; to A30C G54C, 0.173.
Next, A30C G54A: 0.107; A28G U60A: 0.661.
On to A30G C38U, for which the self-cleavage is 0.21.
To A30C A49C belongs 0.0983; to A30C A49G, 0.123.
For the variant A30C A49U, the self-cleavage stood at 0.154.
As for A30U A43G, the self-cleavage amounted to 0.108.
To A30G A45G belongs 0.17; to A30C C50U, 0.118.
To A28U U63C belongs 0.113; to A28G C66U, 0.654; to A28G C66G, 0.0858.
Regarding G29C C48G, the self-cleavage is 0.0534.
To G29A G32A belongs 0.181.
As to G29A A35U, the self-cleavage stood at 0.0646.
Take A30C G34U: the self-cleavage worked out at 0.815.
Next, A28U G69A: 0.137.
To A28U G69U belongs 0.0991; to A30U C50G, 0.157; to A30U U53C, 0.041.
On to A30G G57A, for which the self-cleavage is 0.0803.
Next, A30G G57U: 0.0464; G29A C65U: 0.145.
As to A30U C65G, the self-cleavage amounted to 0.228.
As to A30U C65U, the self-cleavage amounted to 0.0165.
As to A28G G29U, the self-cleavage came to 0.0365.
Next, A28U U70A: 0.422; A28U A31U: 0.138; A30C U62C: 0.0331.
Next, A30C U52C: 0.133.
Next, A30C U52A: 0.214; A28G A61U: 0.182.
Regarding A28G A61C, the self-cleavage came out at 0.434.
To G29C U55G belongs 0.0655; to A30C A47U, 0.105.
For the variant G29A U53A, the self-cleavage worked out at 0.109.
Next, A30C C37A: 0.0529.
Next, A30U A44U: 0.16; A30U G56U: 0.149; A30U G56A: 0.127.
Next, A28U G54U: 0.3; A28G A31U: 0.0204.
For A30U G69U, the self-cleavage was 0.149.
For the variant A30U G69A, the self-cleavage amounted to 0.146.
For the variant A30G C50A, the self-cleavage is 0.0824.
To A30G C50U belongs 0.0809; to A28G A71U, 0.771; to G29A A71G, 0.112.
To G29A A71C belongs 0.295.
As to G29C A43G, the self-cleavage stood at 0.261.
Consider A30G A43C, for which the self-cleavage turned out to be 0.1.
Next, G29C A49U: 0.109; G29C A49G: 0.178.
To A30G G40A belongs 0.0732.
On to A28G A43U, for which the self-cleavage was determined as 0.123.
Next, A28G A43G: 0.158; A28U A47C: 0.172.
Consider A30C U55A, for which the self-cleavage is 0.146.
Take A30C U55C: the self-cleavage was found to be 0.161.
Next, G29C G56A: 0.0331; G29C G56C: 0.0545; A28G A45G: 0.242.
As for A30G G68U, the self-cleavage worked out at 0.169.
Turning to G29C U52G, the self-cleavage is 0.0183.
Next, G29C U52A: 0.129; G29U U63G: 0.103.
For G29C C50U, the self-cleavage turned out to be 0.144.
Next, G29C C50G: 0.0763; A28G C48A: 0.143.
To A28G C48G belongs 0.0684.
G29A G69U: the self-cleavage is 0.113.
In the case of G29A G69C, the self-cleavage was 0.14.
To A30G A31G belongs 0.157; to G29A U55G, 0.143.
As to G29A U55A, the self-cleavage was found to be 0.13.
With G29C U53G, the self-cleavage worked out at 0.0421.
Consider G29C U53A, for which the self-cleavage is 0.116.
Next, A30G U70G: 0.262; A30G U70A: 0.0747; A30G U70C: 0.0846.
Next, G29A A61C: 0.163.
G29A A61G: the self-cleavage was determined as 0.125.
Next, A30C A36U: 0.122; A30U U33G: 0.138; A30U A41G: 0.106.
On to G29A C66G, for which the self-cleavage is 0.0855.
To A30U A59G belongs 0.187; to A30U A59U, 0.0496; to A30C A61C, 0.251.
To A30C U63C belongs 0.0293; to A30U G51A, 0.104; to G29C G34C, 0.116.
On to A28U G29A, for which the self-cleavage was determined as 0.0881.
For G29C U60A, the self-cleavage stood at 0.139.
As to G29C U60C, the self-cleavage came out at 0.164.
As to A30G A36U, the self-cleavage was determined as 0.152.
Turning to A28G A49U, the self-cleavage is 0.118.
To A28G A49G belongs 0.637.
To A28U A61G belongs 0.0909.
Next, G29U C46A: 0.089.
As to G29U C46U, the self-cleavage is 0.124.
As to A31C A47G, the self-cleavage worked out at 0.108.
Turning to A28U A71G, the self-cleavage is 0.673.
Take G29U G54A: the self-cleavage worked out at 0.104.
To A30U G68C belongs 0.118.
To A30U G68U belongs 0.207.
Next, A30U G68A: 0.0299; G29C A61G: 0.135; G29C A61U: 0.0566.
For A28U G68C, the self-cleavage was found to be 0.151.
Next, A28U G68U: 0.272.
For the variant A28U G68A, the self-cleavage was 0.153.
As to G29A G34C, the self-cleavage is 0.248.
Next, A28U A49U: 0.111.
With A28G U70C, the self-cleavage amounted to 0.859.
Next, A28U: 0.656.
Next, A28U G51C: 0.49.
Take A28U G51U: the self-cleavage was found to be 0.485.
To G29U A41C belongs 0.217; to A28U A36U, 0.276; to A30C G56U, 0.157.
Next, A30U G54A: 0.137; A30U G54U: 0.165; G29U U62C: 0.0779.
Next, G29U U62A: 0.103.
Regarding A28G U67C, the self-cleavage amounted to 0.276.
To A30U U63A belongs 0.13; to A30C G69C, 0.318; to A30C G69A, 0.0574.
Regarding G29A C50G, the self-cleavage came out at 0.187.
Next, G29A C38G: 0.101; A28U U67G: 0.201; A30C G32A: 0.145.
To G29A G56A belongs 0.157.
As to A30G U60C, the self-cleavage is 0.252.
To A30U U60A belongs 0.346; to A28U G32U, 0.258; to G29A A49C, 0.179.
For the variant G29C G40U, the self-cleavage worked out at 0.171.
Next, G29C U58C: 0.159; A28G G34A: 1.25.
With A28G U52G, the self-cleavage is 0.948.
Regarding A28G U52C, the self-cleavage was found to be 0.763.
In the case of G29C G54C, the self-cleavage was 0.0908.
Regarding G29C G54A, the self-cleavage worked out at 0.1.
Take G29U U55G: the self-cleavage is 0.062.
Next, G29U U55C: 0.0858; G29U U55A: 0.0925.
To A31C A39C belongs 0.173.
Next, A28G U62A: 0.287.
For the variant A28G U62G, the self-cleavage was found to be 0.183.
Take G29U G56C: the self-cleavage worked out at 0.162.
Next, A30U A39G: 0.0918.
Next, A30U A39U: 0.0553; A30U A39C: 0.111.
Take G29C A31U: the self-cleavage was 0.0962.
In the case of A30C U60G, the self-cleavage amounted to 0.181.
On to A30C G57U, for which the self-cleavage came out at 0.266.
